Assay [1] has as its target HIP14L-GFP (Huntingtin Interacting Protein 14-like, GFP tagged) (human (from the printed RefSeq entries)) (UniProt Q8IUH4). Briefly: co-IP; COS-7 cells transiently co-transfected, harvested after 24 h; lysed in 1% SDS TEEN, diluted in four volumes 1% TritonX-100 TEEN; GFP immunoprecipitated overnight (goat anti-GFP, Dynabeads Protein G); blots probed for HTT and GFP; HTT band as percent of the GFP band, normalized to 15Q HTT 1–548.

Assay [2] addresses HIP14-GFP (Huntingtin Interacting Protein 14, GFP tagged) (human (from the printed RefSeq entries)) (UniProt Q8IUH5). Described as above.
Chain of UniProt Q8IUH5 (Q8IUH5 whole entry): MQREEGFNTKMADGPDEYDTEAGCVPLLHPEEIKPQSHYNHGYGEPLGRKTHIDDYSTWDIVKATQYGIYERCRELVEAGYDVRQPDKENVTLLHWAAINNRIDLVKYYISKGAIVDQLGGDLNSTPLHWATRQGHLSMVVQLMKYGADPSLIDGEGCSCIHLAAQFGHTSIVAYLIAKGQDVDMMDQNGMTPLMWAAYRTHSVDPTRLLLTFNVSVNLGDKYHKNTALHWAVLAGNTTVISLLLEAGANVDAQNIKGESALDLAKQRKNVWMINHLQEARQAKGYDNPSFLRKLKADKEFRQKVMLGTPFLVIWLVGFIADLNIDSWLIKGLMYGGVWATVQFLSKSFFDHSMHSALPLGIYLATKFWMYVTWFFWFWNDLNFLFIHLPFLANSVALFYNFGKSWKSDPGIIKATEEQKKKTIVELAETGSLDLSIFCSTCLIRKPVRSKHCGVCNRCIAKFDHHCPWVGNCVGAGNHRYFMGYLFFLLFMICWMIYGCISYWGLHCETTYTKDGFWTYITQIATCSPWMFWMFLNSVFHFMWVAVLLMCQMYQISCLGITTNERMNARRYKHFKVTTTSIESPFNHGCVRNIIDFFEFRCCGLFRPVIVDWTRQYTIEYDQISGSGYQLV

Chain of UniProt Q8IUH4 (Q8IUH4 whole entry): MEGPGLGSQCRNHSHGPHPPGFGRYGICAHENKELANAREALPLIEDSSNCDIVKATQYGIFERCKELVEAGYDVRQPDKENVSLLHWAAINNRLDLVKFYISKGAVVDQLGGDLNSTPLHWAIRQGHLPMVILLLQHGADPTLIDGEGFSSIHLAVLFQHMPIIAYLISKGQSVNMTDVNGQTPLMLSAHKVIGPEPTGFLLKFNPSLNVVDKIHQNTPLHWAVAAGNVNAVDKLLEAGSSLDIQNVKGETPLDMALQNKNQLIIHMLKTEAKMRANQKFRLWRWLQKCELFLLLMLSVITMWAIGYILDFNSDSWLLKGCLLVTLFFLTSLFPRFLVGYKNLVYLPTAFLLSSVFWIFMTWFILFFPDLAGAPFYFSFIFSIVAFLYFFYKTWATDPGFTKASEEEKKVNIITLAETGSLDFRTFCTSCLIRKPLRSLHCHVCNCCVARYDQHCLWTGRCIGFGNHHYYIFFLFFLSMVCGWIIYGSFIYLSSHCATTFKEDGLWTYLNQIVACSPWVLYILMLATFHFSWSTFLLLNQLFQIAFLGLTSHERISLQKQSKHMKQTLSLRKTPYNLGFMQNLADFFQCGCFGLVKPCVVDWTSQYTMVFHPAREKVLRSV

In turn, 128Q HTT 1–548 (domain or fragment) displayed a percent decrease of interaction against 15Q HTT 1–548 in assay [1] of 54%. This substance yielded a percent less co-immunoprecipitated than 15Q HTT 1–548 in assay [2] of 57%.

These data come from paper PMC3947954.
